Experiment [1] deals with MPXV Bio-M2 (site-specifically biotinylated MPXV Avi-M2) (monkeypox virus (Clade I), UniProt Q8V554 18-220). Put plainly: BLI; […] (10 ug/mL) […]; 10 mM HEPES pH 7.4, 150 mM NaCl, 3 mM EDTA, 1% BSA; 1:1 Langmuir model, […]. The note with it: both partners purified. In general terms: In BLI a coated tip is dipped into the sample, and binding shifts an interference pattern.
Experiment [2] has as its target T1, MPXV M2 (monkeypox virus M2 protein), His-tagged, wild type (monkeypox virus (Clade I), UniProt Q8V554 18-220).
T1 construct: copies: 6 or 7
Put plainly: BLI; […] (10 ug/mL) […]; 10 mM HEPES pH 7.4, 150 mM NaCl, 3 mM EDTA, 0.05% Tween, 1% BSA; 25 °C; 1:1 model; […]. The note with it: both partners purified.

B1: human B7.1 ectodomain, His-tagged (domain or fragment)
chain: VIHVTKEVKEVATLSCGHNVSVEELAQTRIYWQKEKKMVLTMMSGDMNIWPEYKNRTIFDITNNLSIVILALRPSDEGTYECVVLKYEKDAFKREHLAEVTLSVKADFPTPSISDFEIPTSNIRRIICSTSGGFPEPHLSWLENGEELNAINTTVSQDPETELYAVSSKLDFNMTTNHSFMCLIKYGHLRVNQTFNWNTT
notes: also called hB7.1; CD80
One may read the Kd as the constant that tells how readily two partners part at equilibrium. Lower therefore signals tighter binding. As to B1, in experiment [1], binding was characterised by a dissociation constant (Kd) of 95.3 nM and the “t1/2 (dissociation half-life time)” value was 1.71 min.

B2: human B7.1 ectodomain fused to human Fc (Fc fusion, UniProt P33681-1 35-234, looked up)
chain: VIHVTKEVKEVATLSCGHNVSVEELAQTRIYWQKEKKMVLTMMSGDMNIWPEYKNRTIFDITNNLSIVILALRPSDEGTYECVVLKYEKDAFKREHLAEVTLSVKADFPTPSISDFEIPTSNIRRIICSTSGGFPEPHLSWLENGEELNAINTTVSQDPETELYAVSSKLDFNMTTNHSFMCLIKYGHLRVNQTFNWNTT
notes: also called hB7.1-Fc; hB7.1-hFc; not shown: Fc (human), C-terminal, kept
For the molecule B2, the Kd in experiment [2] worked out at 0.15 nM.

B3: human B7.2 ectodomain, His-tagged (domain or fragment)
chain: LKIQAYFNETADLPCQFANSQNQSLSELVVFWQDQENLVLNEVYLGKEKFDSVHSKYMGRTSFDSDSWTLRLHNLQIKDKGLYQCIIHHKKPTGMIRIHQMNSELSVLANFSQPEIVPISNITENVYINLTCSSIHGYPEPKKMSVLLRTKNSTIEYDGVMQKSQDNVTELYDVSISLSVSFPDVTSNMTIFCILETDKTRLLSSPFSIELED
notes: also called hB7.2; CD86
With B3, in experiment [1], the Kd was found to be 388 nM and the “t1/2 (dissociation half-life time)” value worked out at 0.345 min.

B4: human B7.2 ectodomain fused to human Fc (Fc fusion)
chain: LKIQAYFNETADLPCQFANSQNQSLSELVVFWQDQENLVLNEVYLGKEKFDSVHSKYMGRTSFDSDSWTLRLHNLQIKDKGLYQCIIHHKKPTGMIRIHQMNSELSVLANFSQPEIVPISNITENVYINLTCSSIHGYPEPKKMSVLLRTKNSTIEYDGVMQKSQDNVTELYDVSISLSVSFPDVTSNMTIFCILETDKTRLLSSPFSIELED
notes: also called hB7.2-Fc; hB7.2-hFc; not shown: Fc (human), C-terminal, kept
With B4, binding in experiment [2] was put at a Kd of 0.05 nM.
